Measured values published in publication PMC5066845.

Columns and labels:
[1] = target: F-actin polymerised on a streptavidin biosensor from biotinylated and non-biotinylated G-actin (1:4) (rabbit | human) (UniProt P68135); assay: BLI
[2] = target: mouse DNGR-1 extracellular domain (ECD), wild type (mouse); assay: BLI

mouse DNGR-1 ECD W155A W250A (domain or fragment)
Kd [1]: > 100000 nM

short F-actin filaments capped and stabilized with gelsolin (from UniProt P60709;P06396) (complex)
Kd [2]: 8.7 nM
koff [2]: 6.4e-05 s⁻¹
kon [2]: 7600 M⁻¹ s⁻¹

mouse DNGR-1 ECD K251A (domain or fragment)
Kd [1]: > 50000 nM

mouse DNGR-1 extracellular domain (ECD), wild type (domain or fragment)
Kd [1]: 1600 nM
koff [1]: 0.848 s⁻¹
kon [1]: 1.5e+06 M⁻¹ s⁻¹

mouse DNGR-1 ECD N140A Y150A (domain or fragment)
Kd [1]: 2700 nM
